The test addresses erb-b2 receptor tyrosine kinase 2 (HER2) on target cells (Homo sapiens (Human), UniProt P04626 23-1255). Put plainly: cell-based or functional assay.

B1: HER2 CAR CT1094 (receptor)
chain: QVQLQQSGPELKKPGETVKISCKASGYPFTNYGMNWVKQAPGQGLKWMGWINTSTGESTFADDFKGRFDFSLETSANTAYLQINNLKSEDSATYFCARWEVYHGYVPYWGQGTTVTVSSGGGGSGGGGSGGGGSDIQLTQSHKFLSTSVGDRVSITCKASQDVYNAVAWYQQKPGQSPKLLIYSASSRYTGVPSRFTGSGSGPDFTFTISSVQAEDLAVYFCQQHFRTPFTFGSGTKLEIKAEPKSPDKTHTCPPCPKDPKFWVLVVVGGVLACYSLLVTVAFIIFWVRSKRSRLLHSDYMNMTPRRPGPTRKHYQPYAPPRDFAAYRSRVKFSRSADAPAYKQGQNQLYNELNLGRREEYDVLDKRRGRDPEMGGKPRRKNPQEGLYNELQKDKMAEAYSEIGMKGERRRGKGHDGLYQGLSTATKDTYDALHMQALPPR
For the molecule B1, the “EC50 (molecules/cell), Jurkat NFAT luciferase activation, mRNA titration in HeLa; construct CT1094 (CAR only)” value was found to be 6500 molecules/cell; the “EC50 (molecules/cell), Jurkat NFAT luciferase activation, mRNA titration in HeLa; construct CT1113 (CT1094 + Murine blocker)” value worked out at 4900 molecules/cell; the “EC50 (molecules/cell), Jurkat NFAT luciferase activation, mRNA titration in HeLa; construct CT1121 (CT1094 + Human-1 blocker)” value is 4600 molecules/cell; the “EC50 (molecules/cell), Jurkat NFAT luciferase activation, mRNA titration in HeLa; construct CT1187 (CT1094 + Human-2 blocker)” value worked out at 4500 molecules/cell.

These data come from patent US20220339194A1 (A2 BIOTHERAPEUTICS, published 2022).
